Measured values reported in EP4772538A1.

Molecular target: CD3D-CD3E-mFc (human; mouse)
Experiment: SPR, Biacore T200, method of Section 3.1; affinity for CD3D-CD3E-mFc

With “TCR/CD3 bispecific molecule IMC-C103C (control bifunctional molecule)” the Kd was 1.08 nM, the koff was 0.00028 s⁻¹ and the kon was 258000 M⁻¹ s⁻¹.
